Results from the Human Domainome abundance scans (Beltran et al. 2025).

B1: Bromodomain adjacent to zinc finger domain protein 2B, residues 1927 to 1982; numbered along this chain, Q9UIF8 (parent)
chain: KSIMKVYCQICRKGDNEELLLLCDGCDKGCHTYCHRPKITTIPDGDWFCPACIAKA

Variants of: B1
Assay: abundance fitness (aPCA) (normalised: wild type 0, dead -1); higher = more abundant; growth selection in yeast, the domain comes from the species named
Settings: Homo sapiens

Abundance fitness: each site, then its substitutions
C30: R -0.023 | A -0.101 | Q 0.024 | K -0.076 | T 0.039 | L -0.064 | Y 0.004 | I 0.15 | D -0.238 | M 0.069 | F -0.002 | V -0.071 | G -0.009 | E 0.034 | S -0.011 | H -0.016 | P -0.459 | W 0.031 | N -0.208
Y33: T 0.089 | I -0.223 | C -0.289 | K -0.123 | D -0.123 | S -0.086 | L -0.202 | E -0.058 | R -0.053 | V -0.178 | W -0.178 | N -0.213 | H -0.111 | A -0.105 | F -0.154 | P -0.323
T41: Q -0.018 | Y -0.217 | A -0.112 | L -0.187 | D -0.085 | C -0.09 | P 0.074 | E 0.023 | W -0.167 | N -0.059 | K 0.085 | R -0.048 | G 0.001 | H -0.041 | S -0.091 | M -0.108 | V -0.057
H35: F -0.109 | P -0.093 | A 0.021 | E -0.169 | Q -0.09 | K 0.024 | V -0.052 | W -0.18 | Y -0.201 | S -0.105 | N -0.09 | L 0.027 | D 0.001 | I -0.019 | R -0.137 | G -0.102 | M 0.002 | C -0.084
I39: N 0.002 | H -0.189 | V -0.031 | Q -0.059 | W -0.137 | S -0.087 | T -0.124 | G -0.1 | D -0.194 | C 0.011 | A -0.068 | P -0.266 | K -0.111 | E 0.04 | F -0.164 | M 0.039
L22: A 0.032 | T -0.024 | P -0.126 | H -0.039 | N -0.051 | Y -0.174 | K 0.144 | V -0.034 | M -0.067 | G -0.006 | E 0.029 | S 0.01 | C 0.008 | I -0.054
G29: P -0.321 | N -0.013 | D -0.378 | A -0.061 | V 0.002 | R -0.075 | W -0.147 | Y -0.093 | S -0.019 | M -0.279 | E -0.078 | Q -0.053 | H -0.167 | L -0.149 | F -0.035 | C 0.004 | T -0.088 | I 0.084
P37: Y -0.602 | N -0.166 | C -0.32 | M -0.227 | S -0.202 | R -0.227 | T -0.148 | V -0.228 | E 0.026 | A -0.056 | L -0.177 | D -0.195 | F -0.333 | W -0.31 | H -0.188 | Q -0.239 | G -0.161
G25: E -0.014 | P -0.551 | R -0.096 | A -0.171 | H -0.124 | Q 0.003 | N -0.16 | D -0.192 | S -0.149 | K -0.031 | F -0.33 | Y -0.221 | I -0.45 | T -0.09 | L -0.266 | W -0.251
R36: A -0.007 | V 0.053 | H 0.021 | F -0.154 | S 0.065 | Y -0.252 | E 0.058 | I -0.175 | P -0.078 | W -0.004 | K -0.168 | G -0.015 | L 0.06 | Q -0.1 | D -0.03 | T 0.078
